Source: the RNAGym collection of RNA variant scans (doi:10.7554/elife.90254)

B1: LINE1-full (parent)
chain: UACGUAGGUGGUUUUCCCCUGAUAGUGCUAAGGGGGCCUGGAAGUUUGGACUGGGCAGAGCUCAACACAGCGUGGCAAAGUGGCUGUGGCUAGACUGCCUCUCUGGAUUCCUCGUCACUCAGCAGGGCAUCUCUGAGAGAAAUGCC

Variants of: B1
Assay: self-cleavage, relative activity (ratio to wild type); higher = more cleavage; in vitro, sequencing; the parent is a self-cleaving ribozyme
For UACGUAGGUGGUUUUCCCCUGAUAGUGCUAAGGGGGCCUAGAAGUAUGGACUGGGCAGAGCUCAACACAGCGUGGCAAAGUGGCUGUGGCUAGACUGCCUCUCUGGAUUCCUCGUCACUCAGCAGGGCAUCUCUGAGAGAAAUGCC [G40A U46A], the self-cleavage was 1.23.
Work on UACGUAGGUGGUUUUCCCCUGAUAGUGCUAAGGGGGCCUGGAAGUUUGGACAGGGCAGAGCUCAACACAGCGUGGCAAAGAGGCUGUGGCUAGACUGCCUCUCUGGAUUCCUCGUCACUCAGCAGGGCAUCUCUGAGAGAAAUGCC [U52A U81A] yielded a self-cleavage of 1.49.
With UACGUAGGUGGUUUUCCCCUGAUAGUGCUAAGGGGGCCUGGAAGUUUGGACUGGGCAGAGCUCAACACAGCGUGGCAAAGUGGCUGUAGCUAGACUGCCUCUCUGGAUUCCUCGUCACUCAGCAGGGCACCUCUGAGAGAAAUGCC [G88A U130C] the self-cleavage was 0.01.
For UACGUAGGUGGUUUUCCCCUGAUAGUGCUAAGGGGGCCUGGAAGUUUGGACUGGGCAGAGCUCAACACAUCGUGGCAAAGUGGCUGUGGCUAGACUGCCUCUCUGGAUUCCCCGUCACUCAGCAGGGCAUCUCUGAGAGAAAUGCC [G70U U112C], the self-cleavage was 0.06.
For UACGUAGGUGGUUUUCCCCUGAUAGUGCUAAGGGGGCCUGGAAGUUUGGACUGGGCAGAGCUCAACACAGCGUGGCAGAGUGGCUGUGGCUAGACUGCCUCUCUGGAGUCCUCGUCACUCAGCAGGGCAUCUCUGAGAGAAAUGCC [A78G U108G], the self-cleavage was 1.38.
Variant UACGUAGGUGGUUUUCCCUUGGUAGUGCUAAGGGGGCCUGGAAGUUUGGACUGGGCAGAGCUCAACACAGCGUGGCAAAGUGGCUGUGGCUAGACUGCCUCUCUGGAUUCCUCGUCACUCAGCAGGGCAUCUCUGAGAGAAAUGCC [C19U A22G] has a self-cleavage of 1.18.
In the case of UACGUAGGUGGUUUUCCCCUGAUAGUGCCAAGGGGGCCUGGAAGUUUGGACUGGGCAGAGCUCAACACAGCGUGGCAAAGUGGCUGUGGCUAGACUGCCUCUCUAGAUUCCUCGUCACUCAGCAGGGCAUCUCUGAGAGAAAUGCC [U29C G105A], the self-cleavage is reported as 1.13.
Work on UACGUAGGUGGUUUUCCCCUGAUAGUGCUCAGGGGGCCUGGAAGUUUGGACUGGGCAGAGCUCAACACAGCGUGGCAAAGCGGCUGUGGCUAGACUGCCUCUCUGGAUUCCUCGUCACUCAGCAGGGCAUCUCUGAGAGAAAUGCC [A30C U81C] yielded a self-cleavage of 0.92.
For UACGUAGGUGGUUUUCCCCUGAUAGUGCUAAGGGGGCCUGGAAGUUUGGACUGGGCAGAGCUCAACACAGCGUGGCAAAGUGGCUGCGGCUAGACUGCCACUCUGGAUUCCUCGUCACUCAGCAGGGCAUCUCUGAGAGAAAUGCC [U87C U100A], the self-cleavage was 0.1.
For UACGUAGGUGGUUUUCCCCUGAUAGUGCUAAUGGGGCCUGGAAGUUUGGACUGGGCAGAGCUCAACACAGCGUGGCAGAGUGGCUGUGGCUAGACUGCCUCUCUGGAUUCCUCGUCACUCAGCAGGGCAUCUCUGAGAGAAAUGCC [G32U A78G], the self-cleavage was 0.94.
Variant UACGUAGGUGGUUUUCCCCUGAUAGUGCUAAGGGGGCCUGGAAGUUUGGACUGGGCAGAGCUCAACACAGCGUGGCAAAGUGGCUGGGGCUAGACUGCCUCUCUGGACUCCUCGUCACUCAGCAGGGCAUCUCUGAGAGAAAUGCC [U87G U108C] has a self-cleavage of 0.16.
UACGUAGGUGGUUUUCCCCUGAUAGUGCUAAGGGGGCCUGGAAGUUUGGACUGGGCAGAACUCGACACAGCGUGGCAAAGUGGCUGUGGCUAGACUGCCUCUCUGGAUUCCUCGUCACUCAGCAGGGCAUCUCUGAGAGAAAUGCC [G60A A64G] showed a self-cleavage of 0.04.
Work on UACGUAGGUGGUUUUCCCCUGAUAGUGCUAAGGGGGCCUGGACGUUUGGACUGGGCAGAGCUCAACACAGCGUGGCAAAGUGGCUGUGGCUAGACUGCCUCUCUGGACUCCUCGUCACUCAGCAGGGCAUCUCUGAGAGAAAUGCC [A43C U108C] yielded a self-cleavage of 1.78.
Variant UACGUAGGUGGUUUUCCCCUGAUUGUGCUAAGGGGGCCUGGAAGUUUGGACUGGGCAGAGCUCAACACAGCGUGGCAAAGUGGCUGUGGCUAGACUGCCUCUCUGGAUUCCUCGUCACUCAGCAGUGCAUCUCUGAGAGAAAUGCC [A24U G126U] has a self-cleavage of 1.22.
UACGUAGGUGGUUUUCCCCUGAUAGUGCUAAGGGGGCCUAGAAGUUUGGACUGGGCAGAGCUCAACACAGCGUGGCAAAGUGGCUGUGGCUAGACUGCCUCUCUGGAUUCCUCGUCACUCAGCAGGGCAUCUCUGAGAAAAAUGCC [G40A G139A] gave a self-cleavage of 0.58.
In the case of UACGUAGGUGGUUUUCCCCUGAUAGUGCUAAGGGGGCCUGGAAGUUUGGACUGGGCAGAGCGCAACACAGCGUGGCAAAGUGGCUGUGGCUAGACUGCCUCUCUGGACUCCUCGUCACUCAGCAGGGCAUCUCUGAGAGAAAUGCC [U62G U108C], the self-cleavage is reported as 0.07.
UACGUAGGUGGUUUUCCCCUGAUAGUGCUAAGGGGGGCUGGAAGUUUGGACUGGGCAGAGCUCAACACAGCGUGGCAAAGUGGCUGUGGCUAGACUGCCUCUCUGGAUUCCUCGUCACUCAGCAGGGCAUCUCUGAGAGAAGUGCC [C37G A142G] gave a self-cleavage of 1.25.
With UACGUAGGUGGCUUUCCCCUGAUAGUGCUAAGGGGGCCUGGAAGUUUGGACUGGGCAGAGCUCAACACAGCGUGGCAAAGUGGCUGUGGCUAGACUGCCUCUCUGGAUUCCUCGUCACUCAGCAGGGCAUCUCUGAGUGAAAUGCC [U12C A138U] the self-cleavage was 1.21.
For UACGUAGGUGGUUUUCCCCUGAUAGUGCUAAGGGGGCCUGGAAGUUUGGACUGGGCAGAGCUCAACACAGCGUGGCAAAGUGGCUGAGGCUAGACUGCCUCUCUGGAUUACUCGUCACUCAGCAGGGCAUCUCUGAGAGAAAUGCC [U87A C110A], the self-cleavage was 0.06.
For UACGUAGGUGGUUUACCCCUGAUAGUGCUAAGGGGGCCUGGAAGUUUGGACUGGGCAGAGCUCAACACAGCGUGGCAAAGUGGCUGUGGCUAGACUGCCUCUCUGGAUUCCUCGUCACUCAGGAGGGCAUCUCUGAGAGAAAUGCC [U15A C123G], the self-cleavage was 0.92.
In the case of UACGUAGGUGGUUUUCCCCUAAUAGUGCUAAGGGGGCCUGGAAGUUUGGACUGGGCAGAGCUCAACACAGCGUGGCAGAGUGGCUGUGGCUAGACUGCCUCUCUGGAUUCCUCGUCACUCAGCAGGGCAUCUCUGAGAGAAAUGCC [G21A A78G], the self-cleavage is reported as 1.31.
UACGUAGGUGGUUUUCCCCUGAUAGUGCUAAGGGGGCCUGGAAGUUUGGGCUGGGCAGAGCUCAACACAGCGUGGCAAAGUGGCUGUGGCUAGACUGCCUCUCUGGAUUCCUCGUCACUCAGCAGGGCAUCUCUGAGAGGAAUGCC [A50G A140G] gave a self-cleavage of 0.94.
With UACGUAGGUGGUUUUCCCCUGAUAGUGUUAAGGGGGCCUGGAAGUCUGGACUGGGCAGAGCUCAACACAGCGUGGCAAAGUGGCUGUGGCUAGACUGCCUCUCUGGAUUCCUCGUCACUCAGCAGGGCAUCUCUGAGAGAAAUGCC [C28U U46C] the self-cleavage was 1.21.
UACGUAGGUGGUUUUCCCCUGAUAGUGCUAAGGGGGCCUGGAAGCUUGGACUGGGCAGAGCUCAACACAGCGUGGCAAAGUGGCUGUGGCUAAACUGCCUCUCUGGAUUCCUCGUCACUCAGCAGGGCAUCUCUGAGAGAAAUGCC [U45C G93A] gave a self-cleavage of 0.07.
In the case of UACGUAGGUGGUUUUCCCCUGAUAGUGCUAAGGGGGCCUGGAAGUUUGGACUGGGCAGAGCUCAACACAGCGUGGCAAAGUGGCUGUGGCUAAACUGCCUCUCUGGAUUCCUCGUCGCUCAGCAGGGCAUCUCUGAGAGAAAUGCC [G93A A117G], the self-cleavage is reported as 0.06.
Variant UACGUAGGUGGUUUUCCCCUGAUAGUGGUAAGGGGGCCUGGAAGUUUGGACUGGGCAGAGCUCAACACAGCGUGGCAAAGUGGCUGUGGCUAGACUGCCUCUCUGGAUUCCUCGCCACUCAGCAGGGCAUCUCUGAGAGAAAUGCC [C28G U115C] has a self-cleavage of 0.75.
Work on UACGUAGGUGGUUUUCCCCUGAUAGUGCUAAGGGGGCCUGGAAGUUUGGACUGGGCAGAGCUCAGCACAGCGUGGCAAAGUGGCUGUGGCUAGACUGCCUCUCUGGAUUCCUUGUCACUCAGCAGGGCAUCUCUGAGAGAAAUGCC [A65G C113U] yielded a self-cleavage of 0.04.
UACGUAGGUGGUUUUCCCCUAAUAGUGCUAAGGGGGCCUGGAAGUUUGGACUGGGCAGAGCUCAACACAGCGUGGCAAAGUGGCUGUGGCUAGACAGCCUCUCUGGAUUCCUCGUCACUCAGCAGGGCAUCUCUGAGAGAAAUGCC [G21A U96A] showed a self-cleavage of 0.06.
With UACGUAGGUGGUUUUCCCCUGACAGUGCUAAGGGGGCCUGGAAGUUUGGACUGGGCAGAGCUCAACACAGCGUGGCAAAGUGGCUGUGGCUAGACUGCCUCUCUGGAUUCCUCGUCACUCAACAGGGCAUCUCUGAGAGAAAUGCC [U23C G122A] the self-cleavage was 1.61.
In the case of UACGCAGGUGGUUUUCCCCUGAUAGUGCUAAGGGGGCCUGGAAGUUUGGACUGGGCAGAGCUCAACACAGCGUGGCAAAGUGGCUGUGGCUAGACUGCCUCCCUGGAUUCCUCGUCACUCAGCAGGGCAUCUCUGAGAGAAAUGCC [U5C U102C], the self-cleavage is reported as 1.
For UACGUAGGAGGUUUCCCCCUGAUAGUGCUAAGGGGGCCUGGAAGUUUGGACUGGGCAGAGCUCAACACAGCGUGGCAAAGUGGCUGUGGCUAGACUGCCUCUCUGGAUUCCUCGUCACUCAGCAGGGCAUCUCUGAGAGAAAUGCC [U9A U15C], the self-cleavage was 1.08.
UACGUAGGUGGUUUUCCCCUGAUAGUGCUAAGGGGGCCUGGAAGCUUGGACUGGGCAGAGCUCAACACAGCGUGGCAGAGUGGCUGUGGCUAGACUGCCUCUCUGGAUUCCUCGUCACUCAGCAGGGCAUCUCUGAGAGAAAUGCC [U45C A78G] gave a self-cleavage of 1.31.
Variant UACGUAGGUGGUUUUCCCCUGCUAGUGCUAAGGGGGCCUGGAAGUUUGGACUGGGCAGAGCUCAACACAGCGUGGCUAAGUGGCUGUGGCUAGACUGCCUCUCUGGAUUCCUCGUCACUCAGCAGGGCAUCUCUGAGAGAAAUGCC [A22C A77U] has a self-cleavage of 0.35.
UACGUAGGUGGUUUUCCCCUGAUAGUGCUAAGGGGGCCUGGAAGUUUGGACUGGGCAGAGCUCAACACAGCGUGGCAAAGUGGCUGUGGCUAGACUGCCCCUCUGGAUUCCUCGUCACACAGCAGGGCAUCUCUGAGAGAAAUGCC [U100C U119A] gave a self-cleavage of 2.09.
In the case of UACGUAGGUGGUUUUCCCCUGAUAGUGCUAAGGGGGCCUGGAAGUUUGGACUGGGCAGAGCUCAACACAGCGUGGCAAAGUGGCUGUGGCUAGACUGCCUCUCCGGAUUCCCCGUCACUCAGCAGGGCAUCUCUGAGAGAAAUGCC [U104C U112C], the self-cleavage is reported as 1.66.
Work on UACGUAGGUGGUUUUCCCCUGAUAGUGCUAAAGGGGCCUGGAAGUUUGGACUGGGCAGAGCUCAACACAGCGUGGCAAAGUGGCUGUGGCUAGACUGCCUCUCUGGAUUCCUCGUCACUCAGCAGGGCAUCUCUGUGAGAAAUGCC [G32A A136U] yielded a self-cleavage of 0.45.
Variant UACGUAGGUGGUUUUCCCCUGAUAGUGCUAAGGGGGCCUGGAAGUUUGGACUGGGCAGAGCUCAACACAGCGUGGCAGAGUGGCUGUGGCUAGACUGCCUCUCUGGAUUCCUCGUCGCUCAGCAGGGCAUCUCUGAGAGAAAUGCC [A78G A117G] has a self-cleavage of 0.89.
For UACGUAGGUGGUUUUCCCCUGAUAGUGCUAAGGGGGCCUGGAAGUUUGGACUGGGCAGAGCUCAACACAGCGUGGCAAAGUGGCUGUGGCUAGACUGCCUCUCUGGAUUCCUCGUCACUCAGCUGGGCAUCUCUGAGUGAAAUGCC [A124U A138U], the self-cleavage was 1.37.
For UACGUAGGUGGUUAUCCCCUGAUAGUGCUAAGGGGGCCUGGAAGUUUGGACUGGGCUGAGCUCAACACAGCGUGGCAAAGUGGCUGUGGCUAGACUGCCUCUCUGGAUUCCUCGUCACUCAGCAGGGCAUCUCUGAGAGAAAUGCC [U14A A57U], the self-cleavage was 0.03.
